Numbered stars: 1 amine (or outer) side, 2 acyl side, 3 side chain; on linkers, the order of the positions; unused ones are H or OH. Bridge positions count the residues as written; N and C are the ends. Side chains are listed from the residue outwards. Ends that are not written are not given here. * marks the point of attachment. C20 diacid = O=C(O)CCCCCCCCCCCCCCCCCCC(=O)*; C18 diacid = O=C(O)CCCCCCCCCCCCCCCCC(=O)*; C16 diacid = O=C(O)CCCCCCCCCCCCCCC(=O)*; γGlu = O=C(O)[C@H](CCC(=O)[*:2])N[*:1]; C14 diacid = O=C(O)CCCCCCCCCCCCC(=O)*; AEEA = NCCOCCOCC(=O)O
These binders were tested against T1, human calcitonin receptor (human, UniProt P30988 25-474) (assay: cell-based or functional assay).
T1 sequence (looked up): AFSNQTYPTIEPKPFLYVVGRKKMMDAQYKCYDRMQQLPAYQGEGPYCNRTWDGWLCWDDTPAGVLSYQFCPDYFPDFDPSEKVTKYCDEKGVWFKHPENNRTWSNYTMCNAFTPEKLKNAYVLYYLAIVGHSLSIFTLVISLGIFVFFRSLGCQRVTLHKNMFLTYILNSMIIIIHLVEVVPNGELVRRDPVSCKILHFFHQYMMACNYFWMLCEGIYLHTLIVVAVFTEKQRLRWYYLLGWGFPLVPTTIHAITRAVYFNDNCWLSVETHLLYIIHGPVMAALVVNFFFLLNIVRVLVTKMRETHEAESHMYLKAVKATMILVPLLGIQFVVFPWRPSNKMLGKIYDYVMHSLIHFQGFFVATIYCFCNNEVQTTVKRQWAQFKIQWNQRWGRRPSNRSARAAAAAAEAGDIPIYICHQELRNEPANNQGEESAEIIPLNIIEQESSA

Binder	hCTR funct. EC50 (pM)
K([AEEA-AEEA-γGlu-C20 diacid])CNTATCATQRLANFLRHSSPNFGAIPSSTNVGHNTY-NH2 (disulfide 2-7; N-terminus assumed; SMILES CC[C@H](C)[C@H](NC(=O)[C@H](C)NC(=O)CNC(=O)[C@H](Cc1ccccc1)NC(=O)[C@H](CC(N)=O)NC(=O)[C@@H]1CCCN1C(=O)[C@H](CO)NC(=O)[C@H](CO)NC(=O)[C@H](Cc1c[nH]cn1)NC(=O)[C@H](CCCNC(=N)N)NC(=O)[C@H](CC(C)C)NC(=O)[C@H](Cc1ccccc1)NC(=O)[C@H](CC(N)=O)NC(=O)[C@H](C)NC(=O)[C@H](CC(C)C)NC(=O)[C@H](CCCNC(=N)N)NC(=O)[C@H](CCC(N)=O)NC(=O)[C@@H](NC(=O)[C@H](C)NC(=O)[C@@H]1CSSC[C@H](NC(=O)[C@@H](N)CCCCNC(=O)COCCOCCNC(=O)COCCOCCNC(=O)CC[C@H](NC(=O)CCCCCCCCCCCCCCCCCCC(=O)O)C(=O)O)C(=O)N[C@@H](CC(N)=O)C(=O)N[C@@H]([C@@H](C)O)C(=O)N[C@@H](C)C(=O)N[C@@H]([C@@H](C)O)C(=O)N1)[C@@H](C)O)C(=O)N1CCC[C@H]1C(=O)N[C@@H](CO)C(=O)N[C@@H](CO)C(=O)N[C@H](C(=O)N[C@@H](CC(N)=O)C(=O)N[C@H](C(=O)NCC(=O)N[C@@H](Cc1c[nH]cn1)C(=O)N[C@@H](CC(N)=O)C(=O)N[C@H](C(=O)N[C@@H](Cc1ccc(O)cc1)C(N)=O)[C@@H](C)O)C(C)C)[C@@H](C)O, synthetic peptide amide; also called compound 97)	11800
K([γGlu-C14 diacid])CNTATCATQRLANFLRHSSPNFGAIPSSTNVGHNTY-NH2 (disulfide 2-7; N-terminus assumed; SMILES CC[C@H](C)[C@H](NC(=O)[C@H](C)NC(=O)CNC(=O)[C@H](Cc1ccccc1)NC(=O)[C@H](CC(N)=O)NC(=O)[C@@H]1CCCN1C(=O)[C@H](CO)NC(=O)[C@H](CO)NC(=O)[C@H](Cc1c[nH]cn1)NC(=O)[C@H](CCCNC(=N)N)NC(=O)[C@H](CC(C)C)NC(=O)[C@H](Cc1ccccc1)NC(=O)[C@H](CC(N)=O)NC(=O)[C@H](C)NC(=O)[C@H](CC(C)C)NC(=O)[C@H](CCCNC(=N)N)NC(=O)[C@H](CCC(N)=O)NC(=O)[C@@H](NC(=O)[C@H](C)NC(=O)[C@@H]1CSSC[C@H](NC(=O)[C@@H](N)CCCCNC(=O)CC[C@H](NC(=O)CCCCCCCCCCCCC(=O)O)C(=O)O)C(=O)N[C@@H](CC(N)=O)C(=O)N[C@@H]([C@@H](C)O)C(=O)N[C@@H](C)C(=O)N[C@@H]([C@@H](C)O)C(=O)N1)[C@@H](C)O)C(=O)N1CCC[C@H]1C(=O)N[C@@H](CO)C(=O)N[C@@H](CO)C(=O)N[C@H](C(=O)N[C@@H](CC(N)=O)C(=O)N[C@H](C(=O)NCC(=O)N[C@@H](Cc1c[nH]cn1)C(=O)N[C@@H](CC(N)=O)C(=O)N[C@H](C(=O)N[C@@H](Cc1ccc(O)cc1)C(N)=O)[C@@H](C)O)C(C)C)[C@@H](C)O, synthetic peptide amide) [N^ε1-[(4S)-4-carboxy-4-(13-carboxytridecanoylamino)butanoyl]-[Arg17,Pro21,Pro27,His34]-h-amylin]	1090
K([γGlu-C16 diacid])CNTATCATQRLANFLRHSSPNFGAIPSSTNVGHNTY-NH2 (disulfide 2-7; N-terminus assumed; SMILES CC[C@H](C)[C@H](NC(=O)[C@H](C)NC(=O)CNC(=O)[C@H](Cc1ccccc1)NC(=O)[C@H](CC(N)=O)NC(=O)[C@@H]1CCCN1C(=O)[C@H](CO)NC(=O)[C@H](CO)NC(=O)[C@H](Cc1c[nH]cn1)NC(=O)[C@H](CCCNC(=N)N)NC(=O)[C@H](CC(C)C)NC(=O)[C@H](Cc1ccccc1)NC(=O)[C@H](CC(N)=O)NC(=O)[C@H](C)NC(=O)[C@H](CC(C)C)NC(=O)[C@H](CCCNC(=N)N)NC(=O)[C@H](CCC(N)=O)NC(=O)[C@@H](NC(=O)[C@H](C)NC(=O)[C@@H]1CSSC[C@H](NC(=O)[C@@H](N)CCCCNC(=O)CC[C@H](NC(=O)CCCCCCCCCCCCCCC(=O)O)C(=O)O)C(=O)N[C@@H](CC(N)=O)C(=O)N[C@@H]([C@@H](C)O)C(=O)N[C@@H](C)C(=O)N[C@@H]([C@@H](C)O)C(=O)N1)[C@@H](C)O)C(=O)N1CCC[C@H]1C(=O)N[C@@H](CO)C(=O)N[C@@H](CO)C(=O)N[C@H](C(=O)N[C@@H](CC(N)=O)C(=O)N[C@H](C(=O)NCC(=O)N[C@@H](Cc1c[nH]cn1)C(=O)N[C@@H](CC(N)=O)C(=O)N[C@H](C(=O)N[C@@H](Cc1ccc(O)cc1)C(N)=O)[C@@H](C)O)C(C)C)[C@@H](C)O, synthetic peptide amide) [N^ε1-[(4S)-4-carboxy-4-(15-carboxypentadecanoylamino)butanoyl]-[Arg17,Pro21,Pro27,His34]-h-amylin]	2210
K([γGlu-C18 diacid])CNTATCATQRLANFLRHSSPNFGAIPSSTNVGHNTY-NH2 (disulfide 2-7; N-terminus assumed; SMILES CC[C@H](C)[C@H](NC(=O)[C@H](C)NC(=O)CNC(=O)[C@H](Cc1ccccc1)NC(=O)[C@H](CC(N)=O)NC(=O)[C@@H]1CCCN1C(=O)[C@H](CO)NC(=O)[C@H](CO)NC(=O)[C@H](Cc1c[nH]cn1)NC(=O)[C@H](CCCNC(=N)N)NC(=O)[C@H](CC(C)C)NC(=O)[C@H](Cc1ccccc1)NC(=O)[C@H](CC(N)=O)NC(=O)[C@H](C)NC(=O)[C@H](CC(C)C)NC(=O)[C@H](CCCNC(=N)N)NC(=O)[C@H](CCC(N)=O)NC(=O)[C@@H](NC(=O)[C@H](C)NC(=O)[C@@H]1CSSC[C@H](NC(=O)[C@@H](N)CCCCNC(=O)CC[C@H](NC(=O)CCCCCCCCCCCCCCCCC(=O)O)C(=O)O)C(=O)N[C@@H](CC(N)=O)C(=O)N[C@@H]([C@@H](C)O)C(=O)N[C@@H](C)C(=O)N[C@@H]([C@@H](C)O)C(=O)N1)[C@@H](C)O)C(=O)N1CCC[C@H]1C(=O)N[C@@H](CO)C(=O)N[C@@H](CO)C(=O)N[C@H](C(=O)N[C@@H](CC(N)=O)C(=O)N[C@H](C(=O)NCC(=O)N[C@@H](Cc1c[nH]cn1)C(=O)N[C@@H](CC(N)=O)C(=O)N[C@H](C(=O)N[C@@H](Cc1ccc(O)cc1)C(N)=O)[C@@H](C)O)C(C)C)[C@@H](C)O, synthetic peptide amide) [N^ε1-[(4S)-4-carboxy-4-(17-carboxyheptadecanoylamino)butanoyl]-[Arg17,Pro21,Pro27,His34]-h-amylin]	5850
K([γGlu-C20 diacid])CNTATCATQRLADFLRHSSPNFGAIPSSTNVGPRTY-NH2 (disulfide 2-7; N-terminus assumed; SMILES CC[C@H](C)[C@H](NC(=O)[C@H](C)NC(=O)CNC(=O)[C@H](Cc1ccccc1)NC(=O)[C@H](CC(N)=O)NC(=O)[C@@H]1CCCN1C(=O)[C@H](CO)NC(=O)[C@H](CO)NC(=O)[C@H](Cc1c[nH]cn1)NC(=O)[C@H](CCCNC(=N)N)NC(=O)[C@H](CC(C)C)NC(=O)[C@H](Cc1ccccc1)NC(=O)[C@H](CC(=O)O)NC(=O)[C@H](C)NC(=O)[C@H](CC(C)C)NC(=O)[C@H](CCCNC(=N)N)NC(=O)[C@H](CCC(N)=O)NC(=O)[C@@H](NC(=O)[C@H](C)NC(=O)[C@@H]1CSSC[C@H](NC(=O)[C@@H](N)CCCCNC(=O)CC[C@H](NC(=O)CCCCCCCCCCCCCCCCCCC(=O)O)C(=O)O)C(=O)N[C@@H](CC(N)=O)C(=O)N[C@@H]([C@@H](C)O)C(=O)N[C@@H](C)C(=O)N[C@@H]([C@@H](C)O)C(=O)N1)[C@@H](C)O)C(=O)N1CCC[C@H]1C(=O)N[C@@H](CO)C(=O)N[C@@H](CO)C(=O)N[C@H](C(=O)N[C@@H](CC(N)=O)C(=O)N[C@H](C(=O)NCC(=O)N1CCC[C@H]1C(=O)N[C@@H](CCCNC(=N)N)C(=O)N[C@H](C(=O)N[C@@H](Cc1ccc(O)cc1)C(N)=O)[C@@H](C)O)C(C)C)[C@@H](C)O, synthetic peptide amide)	3640
K([AEEA-AEEA-γGlu-C20 diacid])CNTATCATQRLANFLRHSSPNFGAIPSSTNVGPNTY-NH2 (disulfide 2-7; N-terminus assumed; SMILES CC[C@H](C)[C@H](NC(=O)[C@H](C)NC(=O)CNC(=O)[C@H](Cc1ccccc1)NC(=O)[C@H](CC(N)=O)NC(=O)[C@@H]1CCCN1C(=O)[C@H](CO)NC(=O)[C@H](CO)NC(=O)[C@H](Cc1c[nH]cn1)NC(=O)[C@H](CCCNC(=N)N)NC(=O)[C@H](CC(C)C)NC(=O)[C@H](Cc1ccccc1)NC(=O)[C@H](CC(N)=O)NC(=O)[C@H](C)NC(=O)[C@H](CC(C)C)NC(=O)[C@H](CCCNC(=N)N)NC(=O)[C@H](CCC(N)=O)NC(=O)[C@@H](NC(=O)[C@H](C)NC(=O)[C@@H]1CSSC[C@H](NC(=O)[C@@H](N)CCCCNC(=O)COCCOCCNC(=O)COCCOCCNC(=O)CC[C@H](NC(=O)CCCCCCCCCCCCCCCCCCC(=O)O)C(=O)O)C(=O)N[C@@H](CC(N)=O)C(=O)N[C@@H]([C@@H](C)O)C(=O)N[C@@H](C)C(=O)N[C@@H]([C@@H](C)O)C(=O)N1)[C@@H](C)O)C(=O)N1CCC[C@H]1C(=O)N[C@@H](CO)C(=O)N[C@@H](CO)C(=O)N[C@H](C(=O)N[C@@H](CC(N)=O)C(=O)N[C@H](C(=O)NCC(=O)N1CCC[C@H]1C(=O)N[C@@H](CC(N)=O)C(=O)N[C@H](C(=O)N[C@@H](Cc1ccc(O)cc1)C(N)=O)[C@@H](C)O)C(C)C)[C@@H](C)O, synthetic peptide amide; also called compound 98)	1630

Source: patent US20140087995A1 (published 2014)
